# Assay results from patent publication US20190225650A1, “PEPTIDOMIMETIC MACROCYCLES AND USE THEREOF IN REGULATING HIF1ALPHA” (AILERON THERAPEUTICS, INC., priority 2013, published 2019).
# Bridge positions count the residues as written; N and C are the ends. Square brackets hold non-standard residues; d marks the D form. S5 = C=CCCC[C@](C)(N)C(=O)O; Nle = CCCC[C@H](N)C(=O)O
# Target: T1, His6-tagged p300 (AA 323-423) (UniProt Q09472 323-423)
# T1 construct: range 323-423; also called p300-CH; not shown: His6 tag
# Assay: TR-FRET HIF1a/p300 displacement; grade = IC50 >700 nM
# Protocol: The ability of peptides to displace HIF1α c-terminal trans-activation domain from p300-CH was measured by a TR FRET assay. […] The complex was diluted to 300 nM final in complete assay media and competitor peptides were added. The complete assay media contained 150 mM NaCl (Sigma +S5150 or equivalent), 20 mM HEPES pH 7.4 (Boston Bioproducts, Ashland, Mass.; #BB-2076), 7.5 mM CHAPS (Thermo #28300 or equivalent), and 1 mM DTT. Protein and peptide were incubated at room temperature for 1 hour before the addition of anti-Flag-K and anti-6×HIS-D2 (CisBio, Bedford Mass.) HTRF reconstitution buffer (50 mM Phosphate pH 7, 0.8 Potassium Flouride, BSA 0.2%)¹ to a final concentration of 0.5 μM and 4 nM respectively. The reaction continued for an additional two hours at room temperature. The reaction was read on a TECAN F500 plate reader with settings recommended by CisBio. The ratio of donor to acceptor fluorescence was calculated. The resulting data was analyzed with Graphpad Prism 5.0. IC50 values were calculated for both proteins using the One Site Fit-LogIC50 equation and presented in the column “IC₅₀ (nM) (HIF1α_p300 Displacement+CHAPS)” of Table 6. ¹ Cisbio USA, Bedford, Mass.; 61HISDLB (lot 007A), 61FG2KLB (024A), HTRF Buffer (62RB3RDF)
# T1 sequence (Q09472 323-423 limits assumed): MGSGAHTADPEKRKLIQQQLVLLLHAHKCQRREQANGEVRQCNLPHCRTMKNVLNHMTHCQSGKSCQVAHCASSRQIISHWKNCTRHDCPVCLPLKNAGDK
row,Binder,IC50 [µM]
1,Ac-FIDEEVL[Nle][S5]DVI[S5][Nle]ALDRI-NH2 (staple 9-13; SMILES CCCC[C@H](NC(=O)[C@H](CC(C)C)NC(=O)[C@@H](NC(=O)[C@H](CCC(=O)O)NC(=O)[C@H](CCC(=O)O)NC(=O)[C@H](CC(=O)O)NC(=O)[C@@H](NC(=O)[C@H](Cc1ccccc1)NC(C)=O)[C@@H](C)CC)C(C)C)C(=O)N[C@@]1(C)CCCC=CCCC[C@@](C)(C(=O)N[C@@H](CCCC)C(=O)N[C@@H](C)C(=O)N[C@@H](CC(C)C)C(=O)N[C@@H](CC(=O)O)C(=O)N[C@@H](CCCNC(=N)N)C(=O)N[C@H](C(N)=O)[C@@H](C)CC)NC(=O)[C@H]([C@@H](C)CC)NC(=O)[C@H](C(C)C)NC(=O)[C@H](CC(=O)O)NC1=O) [SP-35],> 0.7
2,Ac-FIDEEVL[Nle][S5]LEI[S5][Nle]ALDRI-NH2 (staple 9-13; SMILES CCCC[C@H](NC(=O)[C@H](CC(C)C)NC(=O)[C@@H](NC(=O)[C@H](CCC(=O)O)NC(=O)[C@H](CCC(=O)O)NC(=O)[C@H](CC(=O)O)NC(=O)[C@@H](NC(=O)[C@H](Cc1ccccc1)NC(C)=O)[C@@H](C)CC)C(C)C)C(=O)N[C@@]1(C)CCCC=CCCC[C@@](C)(C(=O)N[C@@H](CCCC)C(=O)N[C@@H](C)C(=O)N[C@@H](CC(C)C)C(=O)N[C@@H](CC(=O)O)C(=O)N[C@@H](CCCNC(=N)N)C(=O)N[C@H](C(N)=O)[C@@H](C)CC)NC(=O)[C@H]([C@@H](C)CC)NC(=O)[C@H](CCC(=O)O)NC(=O)[C@H](CC(C)C)NC1=O) [SP-36],> 0.7
3,Ac-FIDEEVL[Nle][S5]LVE[S5][Nle]ALDRI-NH2 (staple 9-13; SMILES CCCC[C@H](NC(=O)[C@H](CC(C)C)NC(=O)[C@@H](NC(=O)[C@H](CCC(=O)O)NC(=O)[C@H](CCC(=O)O)NC(=O)[C@H](CC(=O)O)NC(=O)[C@@H](NC(=O)[C@H](Cc1ccccc1)NC(C)=O)[C@@H](C)CC)C(C)C)C(=O)N[C@@]1(C)CCCC=CCCC[C@@](C)(C(=O)N[C@@H](CCCC)C(=O)N[C@@H](C)C(=O)N[C@@H](CC(C)C)C(=O)N[C@@H](CC(=O)O)C(=O)N[C@@H](CCCNC(=N)N)C(=O)N[C@H](C(N)=O)[C@@H](C)CC)NC(=O)[C@H](CCC(=O)O)NC(=O)[C@H](C(C)C)NC(=O)[C@H](CC(C)C)NC1=O) [SP-37],> 0.7

# Next, values leading:
row,IC50 [µM],Binder
1,> 0.7,Ac-FIDEEVL[Nle][S5]LVI[S5]EALDRI-NH2 (staple 9-13; SMILES CCCC[C@H](NC(=O)[C@H](CC(C)C)NC(=O)[C@@H](NC(=O)[C@H](CCC(=O)O)NC(=O)[C@H](CCC(=O)O)NC(=O)[C@H](CC(=O)O)NC(=O)[C@@H](NC(=O)[C@H](Cc1ccccc1)NC(C)=O)[C@@H](C)CC)C(C)C)C(=O)N[C@@]1(C)CCCC=CCCC[C@@](C)(C(=O)N[C@@H](CCC(=O)O)C(=O)N[C@@H](C)C(=O)N[C@@H](CC(C)C)C(=O)N[C@@H](CC(=O)O)C(=O)N[C@@H](CCCNC(=N)N)C(=O)N[C@H](C(N)=O)[C@@H](C)CC)NC(=O)[C@H]([C@@H](C)CC)NC(=O)[C@H](C(C)C)NC(=O)[C@H](CC(C)C)NC1=O) [SP-38]
2,> 0.7,Ac-FIDEEVL[Nle][S5]LVI[S5][Nle]ELDRI-NH2 (staple 9-13; SMILES CCCC[C@H](NC(=O)[C@H](CC(C)C)NC(=O)[C@@H](NC(=O)[C@H](CCC(=O)O)NC(=O)[C@H](CCC(=O)O)NC(=O)[C@H](CC(=O)O)NC(=O)[C@@H](NC(=O)[C@H](Cc1ccccc1)NC(C)=O)[C@@H](C)CC)C(C)C)C(=O)N[C@@]1(C)CCCC=CCCC[C@@](C)(C(=O)N[C@@H](CCCC)C(=O)N[C@@H](CCC(=O)O)C(=O)N[C@@H](CC(C)C)C(=O)N[C@@H](CC(=O)O)C(=O)N[C@@H](CCCNC(=N)N)C(=O)N[C@H](C(N)=O)[C@@H](C)CC)NC(=O)[C@H]([C@@H](C)CC)NC(=O)[C@H](C(C)C)NC(=O)[C@H](CC(C)C)NC1=O) [SP-39]
